Results taken from the RNAGym collection of RNA variant scans (doi:10.1093/nar/gkz1192).

B1: CPEB3 Ribozyme (parent)
chain: UAACAGGGGGCCACAGCAGAAGCGUUCACGUCGCAGCCCCUGUCAGAUUCUGGUGAAUCUGCGAAUUCUGCUGUAUAUCUC

Variants of: B1
Assay: self-cleavage, relative activity (ratio to wild type); higher = more cleavage; in vitro, sequencing
How it was run: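 Relative activity was defined as the cleaved/total read fraction for a variant divided by the same fraction for the unmutated ribozyme. CPEB3 self-cleaving ribozyme libraries were made by rounds of error-prone PCR, barcoded, and transcribed in vitro with T7 RNA polymerase for 5 hours at 37°C, and cleavage ran through transcription plus a 15 min DNase I step before EDTA. Illumina sequencing of template-switched reverse transcripts gave the reads, and DNA sequencing mapped the barcodes. Averages come from three batches, using variants with at least 5 reads.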
UAACAGGGGGCCACAACAGAAGCGUUCACGUCGCAGCCCCUGUCAGAUUCUGGUGAAUCUGCGAAUUCUGCUGUAUGUCUC [G16A A77G] gave a self-cleavage of 0.54. Variant UAACAGGGGGCCACUGCAGAAGCGUUCACGUCGCAGCCCCUGUCAGAUUCUGGUGAAUCUGCGAAUUCUGCUGUAUAUCAC [A15U U80A] has a self-cleavage of 1.01. UAACAGGGGGCCACUGCAGAAGCGUUCACGUCGCAGCCCCUGUCAGAUUCUGGUGAAUCUGCGAAUUCUGCUGUAUAUCCC [A15U U80C] gave a self-cleavage of 1.03. For UAACAGGGGGCCACAACAGAAGCGUUCACGUCGCAGCCCCUGUCAGAUACUGGUGAAUCUGCGAAUUCUGCUGUAUAUCUC [G16A U49A], the self-cleavage was 0.4. Variant UAACAGGGGGCCACAACAGAAGCGUUCACGUCGCAGCCCCUGUCAGAUUCUGGUGAAUCUGCGGAUUCUGCUGUAUAUCUC [G16A A64G] has a self-cleavage of 0.45. With UAACAGGGGGCCACAACAGAAGCGUUCACGUCGCAGCCCCUGUCAGAUUCUGGUGAAUCUGCGUAUUCUGCUGUAUAUCUC [G16A A64U] the self-cleavage was 0.19. Variant UAACAGGGGGCCACAACAGAAGCGUUCACGUCGCAGCCCCAGUCAGAUUCUGGUGAAUCUGCGAAUUCUGCUGUAUAUCUC [G16A U41A] has a self-cleavage of 0.1. With UAACAGGGGGCCACAACAGAAGCGUUCACGUCGCAGCCCCGGUCAGAUUCUGGUGAAUCUGCGAAUUCUGCUGUAUAUCUC [G16A U41G] the self-cleavage was 0.12. UAACAGGGGGCCACAACAGAAGCGUUCACGUCGCAGCCCCCGUCAGAUUCUGGUGAAUCUGCGAAUUCUGCUGUAUAUCUC [G16A U41C] gave a self-cleavage of 0.49. For UAACAGGGGGCCACAACAGAAGCGUUCACAUCGCAGCCCCUGUCAGAUUCUGGUGAAUCUGCGAAUUCUGCUGUAUAUCUC [G16A G30A], the self-cleavage was 0.06. In the case of UAACAGGGGGCCACAACAGAAGCGUUCACCUCGCAGCCCCUGUCAGAUUCUGGUGAAUCUGCGAAUUCUGCUGUAUAUCUC [G16A G30C], the self-cleavage is reported as 0.05. With UAACAGGGGGCCACUGCAGAAGCGUUCACGUCGCAGCCCCUGUCAGAUUCUGGUGAAUCAGCGAAUUCUGCUGUAUAUCUC [A15U U60A] the self-cleavage was 0.32. UAACAGGGGGCCACUGCAGAAGCGUUCACGUCGCAGCCCCUGUCAGAUUCUGGUGAAUCCGCGAAUUCUGCUGUAUAUCUC [A15U U60C] gave a self-cleavage of 0.31. For UAACAGGGGGCCACAACAGAAGCGUUCACGUCGCGGCCCCUGUCAGAUUCUGGUGAAUCUGCGAAUUCUGCUGUAUAUCUC [G16A A35G], the self-cleavage was 1.02. With UAACAGGGGGCCACUGCAGAAGCGUUCACGUCGCAGCCCCUGUCAGAUUCUGGUGAAUCUGCGAAUUCUGCUGUAUACCUC [A15U U78C] the self-cleavage was 0.7. Work on UAACAGGGGGCCACUGCAGAAGCGUUCACGUCGCAGCCCCUGUCAGAUUCUGGUGAAUCUGCGAAUUCUGCUGUAUAACUC [A15U U78A] yielded a self-cleavage of 0.48. Variant UAACAGGGGGCCACAACAGAAGCGUUCACGUCGCAGCCCCUGUCAGAUUCUGGUGAAUCUGCGAAUUCUGCUGUAUAUCUC [G16A] has a self-cleavage of 0.34. For UAACAGGGGGCCACAACAGAAGCGUUCACGUCGCAGCCCCUGUCAGGUUCUGGUGAAUCUGCGAAUUCUGCUGUAUAUCUC [G16A A47G], the self-cleavage was 0.5. UAACAGGGGGCCACUGCAGAAGCGUUCACGUCGCAGCCCCUGUCAGAUUCUGGUGAAUCUGCGAAUUCUGCUGCAUAUCUC [A15U U74C] gave a self-cleavage of 0.97. Variant UAACAGGGGGCCACUGCAGAAGCGUUCACGUCGCAGCCCCUGUCAGAUUCUGGUGAAUCUGCGAAUUCUGCUGGAUAUCUC [A15U U74G] has a self-cleavage of 0.97. In the case of UAACAGGGGGCCACUGCAGAAGCGUUCACGUCGCAGCCCCUGUCAGAUUCUGGUGAAUCUGCGAAUUCUGCUGAAUAUCUC [A15U U74A], the self-cleavage is reported as 1.02. Variant UAACAGGGGGCCACAACAGAAGCGAUCACGUCGCAGCCCCUGUCAGAUUCUGGUGAAUCUGCGAAUUCUGCUGUAUAUCUC [G16A U25A] has a self-cleavage of 0.36. Variant UAACAGGGGGCCACAACAGAAGCGCUCACGUCGCAGCCCCUGUCAGAUUCUGGUGAAUCUGCGAAUUCUGCUGUAUAUCUC [G16A U25C] has a self-cleavage of 0.18. With UAACAGGGGGCCACAACAGAAGCGUUCACGUCGCAGCCCCUGUCAGAUUCUGGUGAAUCUGCGAAUUCUGCUGUAUAUAUC [G16A C79A] the self-cleavage was 0.81. For UAACAGGGGGCCACAACAGAAGCGUUCACGUCGCAGCCCCUGUCAGAUUCUGGUGAAACUGCGAAUUCUGCUGUAUAUCUC [G16A U58A], the self-cleavage was 0.12. UAACAGGGGGCCACAACAGGAGCGUUCACGUCGCAGCCCCUGUCAGAUUCUGGUGAAUCUGCGAAUUCUGCUGUAUAUCUC [G16A A20G] showed a self-cleavage of 0.24. UAACAGGGGGCCACAACAGUAGCGUUCACGUCGCAGCCCCUGUCAGAUUCUGGUGAAUCUGCGAAUUCUGCUGUAUAUCUC [G16A A20U] gave a self-cleavage of 0.16. Variant UAACAGGGGGCCACUGCAGAAGCGUUCACGUCGCAGCCCCUGUCAGAUUCUGGUGAAUCUGCGAAUACUGCUGUAUAUCUC [A15U U67A] has a self-cleavage of 0.2. For UAACAGGGGGCCACUGCAGAAGCGUUCACGUCGCAGCCCCUGUCAGAUUCUGGUGAAUCUGCGAAUGCUGCUGUAUAUCUC [A15U U67G], the self-cleavage was 0.11. UAACAGGGGGCCACUGCAGAAGCGUUCACGUCGCAGCCCCUGUCAGAUUCUGGUGAAUCUGCGAAUCCUGCUGUAUAUCUC [A15U U67C] showed a self-cleavage of 0.22. For UAACAGGGGGCCACUGCAGAAGCGUUCACGUCGCAGCCCCUGUCAGAUUCUGGGGAAUCUGCGAAUUCUGCUGUAUAUCUC [A15U U54G], the self-cleavage was 0.59. For UAACAGGGGGCCACAACAGAAGCGUACACGUCGCAGCCCCUGUCAGAUUCUGGUGAAUCUGCGAAUUCUGCUGUAUAUCUC [G16A U26A], the self-cleavage was 0.34. Variant UAACAGGGGGCCACAACAGAAGCGUCCACGUCGCAGCCCCUGUCAGAUUCUGGUGAAUCUGCGAAUUCUGCUGUAUAUCUC [G16A U26C] has a self-cleavage of 0.13. In the case of UAACAGGGGGCCACUGCAGAAGCGUUCACGUCGCAGCCCCUGUCAGAUUCUGGUGAACCUGCGAAUUCUGCUGUAUAUCUC [A15U U58C], the self-cleavage is reported as 0.26.
